This note sets out measurements from US20260116991A1 (HAINAN SIMCERE ZAIMING PHARMACEUTICAL, published 2026).

Where “and” joins values, the source holds several entries; their conditions need not be identical. Identical values can stand only once.

One experiment concerns the target T1, GPC3 on HepG2 cells (human, UniProt P51654 25-554).
T1 construct: whole, on cells; also called glypican-3
The experiment in a line: FACS on HepG2 cells.

In experiment [1] the target is T2, murine GPC3-His protein (Sino Biological, Cat. No. 50989-M08B) (murine, UniProt Q8CFZ4 25-558).
T2 construct: Bought protein; also called murine GPC3 protein; mouse GPC3-his protein; not shown: His tag
Nature of the experiment: ELISA, coated antigen. Background: An ELISA detects its analyte on a solid surface through an enzyme-linked reagent.

For experiment [2], the target named is T3, polypeptide GC3pep of human GPC3 (Ala524-Lys563) (human).
T3 construct: Residues Ala524-Lys563 of human GPC3 (NCBI NM_004484.3); coated on the ELISA plate; also called membrane proximal polypeptide GC3pep
T3 peptide: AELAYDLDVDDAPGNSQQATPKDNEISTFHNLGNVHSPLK
The experiment in a line: ELISA, coated peptide.

T2 sequence (Q8CFZ4 25-558 limits assumed): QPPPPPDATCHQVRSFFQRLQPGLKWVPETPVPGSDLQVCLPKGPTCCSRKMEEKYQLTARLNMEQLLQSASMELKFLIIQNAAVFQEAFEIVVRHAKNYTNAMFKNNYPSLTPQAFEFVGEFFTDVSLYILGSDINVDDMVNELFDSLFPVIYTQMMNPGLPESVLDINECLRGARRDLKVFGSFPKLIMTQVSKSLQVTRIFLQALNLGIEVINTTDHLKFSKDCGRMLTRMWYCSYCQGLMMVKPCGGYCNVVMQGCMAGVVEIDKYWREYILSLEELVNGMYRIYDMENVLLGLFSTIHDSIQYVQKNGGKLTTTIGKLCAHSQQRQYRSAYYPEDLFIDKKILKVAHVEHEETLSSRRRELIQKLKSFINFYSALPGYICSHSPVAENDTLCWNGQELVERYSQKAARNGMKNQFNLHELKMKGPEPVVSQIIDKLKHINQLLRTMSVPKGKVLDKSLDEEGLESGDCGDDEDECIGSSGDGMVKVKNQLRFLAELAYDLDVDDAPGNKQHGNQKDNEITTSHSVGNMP

B1: hAb001H1L1b (antibody, human IgG1, V domains shown)
VH: EVQLVESGGGLVQPGGSLRLSCAASGFSFNTNAMNWVRQAPGKGLEWVGRIRSKSNNYATYYADSVKDRFTISRDDSKNSLYLQMNSLKTEDTAVYYCVRDGYYVLFAYWGQGTLVTVSS
VL: DIVMTQTPLSLPVTPGEPASISCRFSQSIVNSNANTYLEWFLQKPGQSPQLLIYKVSNRFSGVPDRFSGSGSGTDFTLKISRVEAEDVGVYYCFQGSHVPFTFGQGTKLEIK
notes: Humanized F2.169.2, H1+L1b
What is called EC50 is the midpoint of the concentration-response curve. High values mean lower potency in that assay, low ones higher potency in that assay. Take B1: in the experiment with GPC3 on HepG2 cells, the EC50 amounted to 0.918 nM and the “Max MFI” value came out at 4090.

B2: hAb007LH3L1b (antibody, human IgG1, V domains shown)
VH: EVQLVQSGAEVKKPGSSVKVSCKASGYTFTDYEMHWVRQAPGQGLEWMGTIDPETGNTAYNQKFKGRVTLTADKSTSTAYMELSSLRSEDTAVYYCTRPYSLTYWGQGTLVTVSS
VL: DIVMTQTPLSLPVTPGEPASISCRSSQSFVHSNRDTYLQWYLQKPGQSPQLLIYKVSNRFSGVPDRFSGSGSGTDFTLKISRVEAEDVGVYYCFQGSHVPYTFGQGTKLEIK
notes: Humanized F3.81.19
As for B2, in experiment [1], the binding result is listed as “no binding”.

B3: hAb007LH3L1a (antibody, human IgG1, V domains shown)
VH: EVQLVQSGAEVKKPGSSVKVSCKASGYTFTDYEMHWVRQAPGQGLEWMGTIDPETGNTAYNQKFKGRVTLTADKSTSTAYMELSSLRSEDTAVYYCTRPYSLTYWGQGTLVTVSS
VL: DIVMTQTPLSLPVTPGEPASISCRSSQSFVHSDGDTYLQWYLQKPGQSPQLLIYKVSNRFSGVPDRFSGSGSGTDFTLKISRVEAEDVGVYYCFQGSHVPYTFGQGTKLEIK
notes: Humanized F3.81.19
Take B3: the binding result in experiment [1] is “no binding”.

B4: hAb007LH2L1b (antibody, human IgG1, V domains shown)
VH: EVQLVQSGAEVKKPGSSVKVSCKASGYTFTDYEMHWVRQAPGQGLEWMGTIDPETGNTAYNQKFKGRVTITADKSTSTAYMELSSLRSEDTAVYYCTRPYSLTYWGQGTLVTVSS
VL: DIVMTQTPLSLPVTPGEPASISCRSSQSFVHSNRDTYLQWYLQKPGQSPQLLIYKVSNRFSGVPDRFSGSGSGTDFTLKISRVEAEDVGVYYCFQGSHVPYTFGQGTKLEIK
notes: Humanized F3.81.19
Regarding B4, the binding result in experiment [1] is given as “no binding”.

B5: hAb007LH3L1 (antibody, human IgG1, V domains shown)
VH: EVQLVQSGAEVKKPGSSVKVSCKASGYTFTDYEMHWVRQAPGQGLEWMGTIDPETGNTAYNQKFKGRVTLTADKSTSTAYMELSSLRSEDTAVYYCTRPYSLTYWGQGTLVTVSS
VL: DIVMTQTPLSLPVTPGEPASISCRSSQSFVHSNGDTYLQWYLQKPGQSPQLLIYKVSNRFSGVPDRFSGSGSGTDFTLKISRVEAEDVGVYYCFQGSHVPYTFGQGTKLEIK
notes: Humanized F3.81.19
Turning to B5, the binding result in experiment [1] is “no binding”.

B6: GC33 IgG (antibody, V domains shown)
VH: QVQLVQSGAEVKKPGASVKVSCKASGYTFTDYEMHWVRQAPGQGLEWMGALDPKTGDTAYSQKFKGRVTLTADKSTSTAYMELSSLTSEDTAVYYCTRFYSYTYWGQGTLVTVSS
VL: DVVMTQSPLSLPVTPGEPASISCRSSQSLVHSNRNTYLHWYLQKPGQSPQLLIYKVSNRFSGVPDRFSGSGSGTDFTLKISRVEAEDVGVYYCSQNTHVPPTFGQGTKLEIKR
notes: Complete IgG form of the control antibody GC33; also called codrituzumab
In the case of B6, the EC50 with GPC3 on HepG2 cells is 1.56 nM and 1.21 nM.

B7: F1.21.8 human-murine chimeric antibody (antibody, human IgG1, kappa, V domains shown)
VH: EVQLQQSGPELVKPGASVKISCKTSGFLFTGHYMHWVKSSHGNILDWIGYIYPYNAISFYNQKFKGKATLTVDKSSNTAYMELRSLTSEDSAVYYCARGDYGNYVTAYWGQGTLVTVSA
VL: DVLMTQTPLSLPVSLGDQASISCRSSQSIVHSSGNTYLEWYLQKPGQSPKLLIYKVSNRFSGVPDRFSGSGSGTDFTLKISRVEAEDLGVYYCFQGSHLPWTFGGGTKLDIKR
notes: Chimeric
With B7, the binding result in experiment [2] is given as “no binding (tested: 100 nM)”.

B8: F1.2.14 human-murine chimeric antibody (antibody, human IgG1, kappa, V domains shown)
VH: RVQLQQSGAELVKPGASVRMSCKASGYTFTAYSIEWMKQNLGKSLEWIGNFRPYNDDTKYNENFKGRATLTVEKSSATVYLELSRLTSDDSAVYYCARSGPTDYFDYWGQGTTLIVSS
VL: DIQMTQSPASLSASVGETVTITCRASDNIYSYLAWYQQKQGQSPQLLVYNAKTLAEGVPSRFSGSGSVTQFSLKIISLQPEDFGTYYCQHHFGTPRTFGGGTKLEIKR
notes: Chimeric
In the case of B8, the binding result in experiment [2] is given as “no binding (tested: 100 nM)”.
